# Experimental data reported in publication PMC11006394.
# How the values were obtained:
# [1] = molecular target: Cno DIL domain (aa 613–1006) (Drosophila) (UniProt Q24279); assay: SEC-MALS; Superdex 200, 0.5 ml/min; for the DIL domain: 100 ul at 5.0 mg/ml injected, 300 mM NaCl, 25 mM Tris-HCl pH 8.5, 1 mM MgCl2, 0.1% beta-mercaptoethanol, 0.2 g/l sodium azide; monomer and homodimer peaks; conditions for FHA-DIL-PDZ not given
# [2] = molecular target: Cno FHA-DIL-PDZ protein (aa 372–1110) (Drosophila) (UniProt Q24279); assay: as above
percent of injected protein eluted as homodimer [1] [%],stoichiometry N [1],percent of injected protein eluted as homodimer [2] [%],stoichiometry N [2],Substance
27,2,–,–,Cno DIL domain (aa 613–1006) (from UniProt Q24279 613-1006) (domain or fragment)
–,–,7,2,Cno FHA-DIL-PDZ protein (aa 372–1110) (from UniProt Q24279 372-1110) (domain or fragment)
